Series [1] addresses T1, HIV-1 integrase wild-type (IN1-288) (HIV-1, UniProt P12497 P12497:1148-1435). Description: inhibition; 3'-processing (+/-17); strand transfer 24 nM; Table C-2 0.060/0.020 uM. The note with it: intramolecular G4.
The target in series [2] is T1, HIV-1 integrase wild-type (IN1-288). The series is described as follows: inhibition; first activity column (headed strand transfer); other column 0.134. The note with it: G4.
Series [3] has the same target. Description: inhibition; first activity column (headed strand transfer); other column 0.120. To be noted: G4.
Series [4] has the same target. The series is described as follows: inhibition; first activity column (headed strand transfer); other column 0.055. The note with it: G4.
The target is the same in series [5]. Description: inhibition; 3'-processing; strand transfer 620 nM. The note with it: G4.
The target is the same in series [6]. The series is described as follows: inhibition; first activity column (headed strand transfer, order matches 3'-processing elsewhere); other column 0.750; Table B-7 gives >0.5 for both. The note with it: G4.
The target is the same in series [7]. The series is described as follows: inhibition; first activity column (headed strand transfer); other column 0.050.
For series [8] the target is unchanged. The series is described as follows: inhibition; first activity column (headed strand transfer); other column 0.013.
Series [9] shares this target. The series is described as follows: inhibition; first activity column (headed strand transfer); other column 0.500. To be noted: G4.
The target is the same in series [10]. The series is described as follows: inhibition; 3'-processing; strand transfer 0.070 uM. To be noted: G4.
The target is the same in series [11]. The series is described as follows: inhibition; first activity column (headed strand transfer); other column 0.070. To be noted: G4.
The target of series [12] is T2, gp120 envelope glycoprotein (HIV-1, UniProt P04578 P04578:33-511). Description: competition; ID50, gp120/CD4 ELISA. To be noted: tags: gp120 capture ELISA kit. A general note: In an ELISA, binding on a coated surface is turned into a signal by an enzyme label.
The target in the next series is CD4 (UniProt P01730 P01730:26-396). The series is described as follows: competition; ID50, oligo with immobilized CD4. To be noted: tags: immobilized, gp120 capture ELISA kit.
The target of series [13] is T1, HIV-1 integrase wild-type (IN1-288). The series is described as follows: inhibition; first activity column (headed strand transfer); other column 0.016. The note with it: G4, loop 3 inverted.
The target is the same in series [14]. Description: inhibition; 3'-processing (+/-26); strand transfer 134 nM. To be noted: G4.
The target is the same in series [15]. Description: inhibition; first activity column (headed strand transfer); other column 0.060. The note with it: G4.
For series [16] the target is unchanged. Description: inhibition; 3'-processing; strand transfer 0.123 uM. The note with it: one tetrad disrupted.
Series [17] shares this target. Description: inhibition; first activity column (headed strand transfer); other column 0.040. The note with it: G4.
Series [18] shares this target. Description: inhibition; 3'-processing; strand transfer 0.125 uM. The note with it: G4.
The target is the same in series [19]. Description: inhibition; first activity column (headed strand transfer); other column 0.062. To be noted: G4.
The target is the same in series [20]. Description: inhibition; first activity column (headed strand transfer); other column 0.030. The note with it: G4.
The target is the same in series [21]. The series is described as follows: inhibition; first activity column (headed strand transfer); other column 0.156. The note with it: G4.
Series [22] shares this target. Description: inhibition; first activity column (headed strand transfer); other column 0.095. To be noted: G4.
Series [23] deals with T2, gp120 envelope glycoprotein. Description: competition; ID50, gp120/CD4 ELISA, preincubated with gp120. The note with it: tags: gp120 capture ELISA kit.
Series [24] concerns the target T1, HIV-1 integrase wild-type (IN1-288). Description: inhibition; first activity column (headed strand transfer, order matches 3'-processing in Table D-1); other column 0.600. To be noted: G4.
For series [25] the target is unchanged. The series is described as follows: inhibition; 3'-processing; strand transfer 0.023 uM. The note with it: G4.
For series [26] the target is unchanged. Description: inhibition; first activity column (headed strand transfer); other column 0.610; Table C-2 prints 3' end ggg. The note with it: G4.
The target is the same in series [27]. The series is described as follows: inhibition; first activity column (headed strand transfer); other column 0.084. The note with it: G4.

The record followed here is patent US6323185, “Anti-viral guanosine-rich oligonucleotides and method of treating HIV” (The United States of America as represented by the …).

B1: T30695 (ssDNA)
DNA: GGGTGGGTGGGTGGGT
modifications: PS at first and last linkages
For B1, the IC50 (commonly the concentration at which inhibition is half-maximal) in series [1] stood at 43 nM.

B2: T30722 (ssDNA)
DNA: GTGGGTGGTGGGTGGGT
modifications: PS at first and last linkages, capital T = C5-propynyl dU
Regarding B2, the IC50 in series [2] is 129 nM.

B3: T30678 (ssDNA)
DNA: GTGGTGGGTGGGTTGGT
modifications: PS at first and last linkages
B3 yielded an IC50 in [3] of 98 nM.

B4: T30719 (ssDNA)
DNA: GGGTGGGTGGGTGGGT
modifications: PS at first and last linkages, capital T = C5-propynyl dU
B4: the IC50 in [4] worked out at 55 nM.

B5: T30677 (ssDNA)
DNA: GTGGTTGGTGGGTTGGT
modifications: PS at first and last linkages
In series [5], B5 yielded an IC50 of 725 nM.

B6: T30659 thrombin-binding aptamer pPT (ssDNA)
DNA: GGTTGGTGTGGTTGG
modifications: PS at first and last linkages (Table B-7; Table C-1 lists it as PT)
In turn, B6 registered an IC50 in series [6] of 870 nM.

B7: T30571 (ssDNA)
DNA: GTGGTGGGTGGGTGGGT
modifications: PS at first and last linkages, 5-bromo-dU at positions 5, 9, 13 [n positions 5,9,13 = modified dU]
In turn, B7 gave an IC50 in series [7] (G4) of 55 nM.

B8: T30697 (ssDNA)
DNA: GTGGTGGGGTGGTGGGT
modifications: PS at first and last linkages
Turning to B8, the IC50 in series [8] (G4, loop 2 inverted) came out at 130 nM.

B9: T30675 (ssDNA)
DNA: GTGGTGGGTGTGGTTGGT
modifications: PS at first and last linkages
In turn, B9 came in with an IC50 in series [9] of 485 nM.

B10: T30038 (ssDNA)
DNA: GTGGTGGGTGGGTGGGT
modifications: all PS
On to B10, for which the IC50 in series [10] is 90 nM.

B11: T30570 (ssDNA)
DNA: GTGGTGGGTGGGTGGGT
modifications: PS at first and last linkages, 5-bromo-dU at position 13 [n positions 13 = modified dU]
B11: it took 90 nM to reach half-maximal inhibition in [11] (IC50).

B12: 1232 random PT (ssDNA)
DNA: GATCCATGTCAGTGACAC
modifications: all PS
Regarding B12, the IC50 (in [12]; with CD4) was above 10000 nM in each case.

B13: 1174 (ssDNA)
DNA: GGGTGGGTGGGTGGGTGG
modifications: all PS
In series [12], B13 returned an IC50 of 90 nM.

B14: T30698 (ssDNA)
DNA: GTGGTGGGTGGGGTGGT
modifications: PS at first and last linkages
Turning to B14, the IC50 in [13] turned out to be 150 nM.

B15: T30577 (ssDNA)
DNA: GTGGTGGGTGGGTGGGT
modifications: PS at first and last linkages, 5-iodo-dU at position 9 [n positions 9 = modified dU]
Turning to B15, the midpoint of inhibition in series [4], the IC50, lay at 65 nM.

B16: T30696 (ssDNA)
DNA: GTGGGTGGTGGGTGGGT
modifications: PS at first and last linkages
In turn, B16 had an IC50 in [8] (G4, loop 1 inverted) of 122 nM.

B17: T30676 (ssDNA)
DNA: GTGGTGGGTGTGGTGGGT
modifications: PS at first and last linkages
The molecule B17 came in with a concentration for half-maximal inhibition (IC50) in [14] of 148 nM.

B18: T30576 (ssDNA)
DNA: GTGGTGGGTGGGTGGGT
modifications: PS at first and last linkages, 5-iodo-dU at position 5 [n positions 5 = modified dU]
Take B18: the IC50 in series [7] (G4) came out at 65 nM.

B19: 1231 random (ssDNA)
DNA: GATCCATGTCAGTGACAC
modifications: phosphodiester, amine
On to B19, for which the IC50 was above 100000 nM in series [12] and above 50000 nM with CD4.

B20: T30744 (ssDNA)
DNA: GTGGTGGGCGGGTGGGT
modifications: PS at first and last linkages
In series [15], B20 yielded an IC50 of 105 nM.

B21: T30526 (ssDNA)
DNA: GTGATGGGTGGGTGGGT
modifications: PS at first and last linkages
Regarding B21, the IC50 in series [16] turned out to be 200 nM.

B22: T30578 (ssDNA)
DNA: GTGGTGGGTGGGTGGGT
modifications: PS at first and last linkages, 5-iodo-dU at position 13 [n positions 13 = modified dU]
As for B22, in [7] (G4), the half-maximal inhibitory concentration (IC50) worked out at 60 nM.

B23: T30700 (ssDNA)
DNA: GTGGTGGGTGGGTGGGT
modifications: PS at first and last linkages, capital T = C5-propynyl dU
On to B23, for which the concentration for half-maximal inhibition (IC50) in [17] was found to be 82 nM.

B24: T30175 (ssDNA)
DNA: GTGGTGGGTGGGTGGGT
modifications: all phosphodiester
In [18], B24 gave a concentration for half-maximal inhibition (IC50) of 170 nM.

B25: T30699 (ssDNA)
DNA: GTGGGTGGTGGGGTGGT
modifications: PS at first and last linkages
B25 displayed an IC50 in series [7] (G4, loops 1 and 3 inverted) of 136 nM.

B26: T30720 (ssDNA)
DNA: GGGGTGGTGGGTGGGT
modifications: PS at first and last linkages, capital T = C5-propynyl dU
B26: the IC50 in series [19] stood at 59 nM.

B27: T30702 (ssDNA)
DNA: GTGGTGGGTGGGTGGGT
modifications: PS at first and last linkages, capital T = C5-propynyl dU
In the case of B27, the IC50 in series [20] turned out to be 32 nM.

B28: T30579 (ssDNA)
DNA: GTGGTGGGTGGGTGGGT
modifications: PS at first and last linkages, 5-iodo-dU at positions 5, 9, 13 [n positions 5,9,13 = modified dU]
The molecule B28 displayed an IC50 in [4] of 60 nM.

B29: T30679 (ssDNA)
DNA: GTGGTTGGTGGGTGGGT
modifications: PS at first and last linkages
Regarding B29, half-maximal inhibition in series [21] (IC50) was put at 159 nM.

B30: T30701 (ssDNA)
DNA: GTGGTGGGTGGGTGGGT
modifications: PS at first and last linkages, capital T = C5-propynyl dU
In series [20], B30 registered an IC50 of 72 nM.

B31: T30075 (ssDNA)
DNA: GTGGTGGGTGGGTGGGT
modifications: 3'-cholesterol via triglycyl linker
In [22], B31 gave an IC50 of 110 nM.

B32: I100-12 (ssDNA)
DNA: GTTGGGGGTTGTTGGTGGGGTGGTGG
modifications: all PS
Take B32: the IC50 in the series with CD4 is 475 nM; in [23] it was 80 nM.

B33: T30673 (ssDNA)
DNA: GTGGTTGGTGTGGTTGG
modifications: PS at first and last linkages
B33 yielded an IC50 in series [24] of 790 nM.

B34: T30341 thrombin-binding aptamer PT (ssDNA)
DNA: GGTTGGTGTGGTTGG
modifications: all PS (Table B-7; Table C-1 lists it as pPT)
In turn, B34 registered a concentration for half-maximal inhibition (IC50) in series [25] of 42 nM.

B35: T30674 (ssDNA)
DNA: GTGGTTGGTGTGGTTGGT
modifications: PS at first and last linkages
For the molecule B35, the IC50 in [26] was determined as 760 nM.

B36: I100-21 (ssDNA)
DNA: GTGGTGGGTGGGTGGGTGGTGGGTGGTGGTTGTGGGTGGGTGGTG
modifications: all PS
As to B36, the IC50 worked out at 48 nM with CD4 and 70 nM in [23].

B37: T30661 (ssRNA)
RNA: GUGGUGGGUGGGUGGGU
modifications: PS at first and last linkages, RNA sugars
B37 gave an IC50 in [27] of 111 nM.
